The target of series [1] is T1, SOX18 full length (mouse, UniProt P43680 1-377). The experiment in a line: fluorescence polarization; 2 mM Mg2+; maximum binding (highest mP); FP: 30 mM HEPES pH 7.5, 100 mM KCl, 40 mM NaCl, 10 mM ammonium acetate, 10 mM guanidinium HCl, 2 mM MgCl2, 0.5 mM EDTA, 0.01% NP-40, room temp, 5 nM DNA, 5-150. The settings on record: protein: recombinant; tags: N-terminal HIS-GST; chain copies: 2; label: 5'-fluorescein; blunt. On the technique in general: Polarisation of emitted light reports the rotation of a fluorescent probe.
T1 sequence (P43680 whole entry): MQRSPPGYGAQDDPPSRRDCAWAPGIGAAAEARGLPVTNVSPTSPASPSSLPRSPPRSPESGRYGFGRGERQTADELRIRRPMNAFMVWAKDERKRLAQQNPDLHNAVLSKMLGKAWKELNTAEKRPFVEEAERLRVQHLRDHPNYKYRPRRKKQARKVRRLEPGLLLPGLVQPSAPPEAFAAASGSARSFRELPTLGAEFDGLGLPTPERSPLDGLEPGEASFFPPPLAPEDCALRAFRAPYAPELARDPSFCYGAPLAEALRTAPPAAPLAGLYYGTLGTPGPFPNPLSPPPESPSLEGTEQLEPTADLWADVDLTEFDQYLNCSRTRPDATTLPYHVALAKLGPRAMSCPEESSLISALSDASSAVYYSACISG

A further series deals with SOX18-HMG (Sox18_79) (mouse, UniProt P43680 77-155). The experiment in a line: EMSA; 15 nM protein, 1 nM DNA, 50 uM Zn2+; two HMG bind; FP: 30 mM HEPES pH 7.5, 100 mM KCl, 40 mM NaCl, 10 mM ammonium acetate, 10 mM guanidinium HCl, 2 mM MgCl2, 0.5 mM EDTA, 0.01% NP-40, room temp, 5 nM DNA, 5-150. The settings on record: protein: recombinant; tags: pETG20A or pHisMBP vector; chain copies: 2; label: 5'-Cy5; blunt. For orientation: Mobility shift assays separate free from complexed probe on a gel.
Chain of SOX18-HMG (Sox18_79) (P43680 77-155): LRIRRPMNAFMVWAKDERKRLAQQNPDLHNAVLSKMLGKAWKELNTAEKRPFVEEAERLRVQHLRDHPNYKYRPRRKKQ

The target in the next series is SOX9-HMG (UniProt Q04887 105-173). The experiment in a line: EMSA; 50 uM Zn2+; two HMG bind; FP: 30 mM HEPES pH 7.5, 100 mM KCl, 40 mM NaCl, 10 mM ammonium acetate, 10 mM guanidinium HCl, 2 mM MgCl2, 0.5 mM EDTA, 0.01% NP-40, room temp, 5 nM DNA, 5-150. Particulars: protein: recombinant; chain copies: 2; label: 5'-Cy5; blunt.
Chain of SOX9-HMG (Q04887 105-173): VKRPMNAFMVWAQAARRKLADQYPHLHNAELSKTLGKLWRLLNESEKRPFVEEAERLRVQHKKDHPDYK
The target in series [2] is T1, SOX18 full length. The experiment in a line: fluorescence polarization; 2 mM Mg2+; FP: 30 mM HEPES pH 7.5, 100 mM KCl, 40 mM NaCl, 10 mM ammonium acetate, 10 mM guanidinium HCl, 2 mM MgCl2, 0.5 mM EDTA, 0.01% NP-40, room temp, 5 nM DNA, 5-150. Particulars: protein: recombinant; tags: N-terminal HIS-GST; chain copies: 2; label: 5'-fluorescein; blunt.

B1: IR5 (FP) (dsDNA)
DNA 1: CGCCAGTAGGAACAATGCGGCATTGTTTTCCGGGGGC
DNA 2: GCCCCCGGAAAACAATGCCGCATTGTTCCTACTGGCG
On to B1, for which the binding result with SOX18 full length [1] is given as “binds”.

B2: IR5 (EMSA) (dsDNA)
DNA 1: B1 DNA 1
DNA 2: B1 DNA 2
Turning to B2, the binding result with SOX18-HMG (Sox18_79) and with SOX9-HMG was “binds” in each case.

B3: IR1 (FP) (dsDNA)
DNA 1: CGCCAGTAGGGCAACAATGATTGTTGCTTCCGGGGGC
DNA 2: GCCCCCGGAAGCAACAATCATTGTTGCCCTACTGGCG
Consider B3, for which the binding signal with SOX18 full length [2] was ~0.5 occupancy relative to IR5.

Values taken from PMC6265484, “Homodimerization regulates an endothelial specific signature of the SOX18 transcription factor”.
